Among the data in patent US20160176924A1, “MODIFIED PEPTIDES AS POTENT INHIBITORS OF THE PSD-95/NMDA RECEPTOR INTERACTION” (priority 2008, published 2016) are fold impairment of affinity relative to peptide 1, fold increase in Ki compared to peptide 1 and Ki values, retold here.

Bounds are passed on as bounds.

As usually defined, the Ki is the equilibrium dissociation constant of an inhibitor or competing ligand from its target. Low readings indicate a stronger hold on the target, high ones a looser hold on the target.

What all share (test): FP competition, fluorescent NR2B probe
Assay [1] deals with HIS-PDZ2 protein (PSD-95 PDZ2, residues 155-249, with tag …) (human) (UniProt P78352).
Assay [2] deals with HIS-PDZ1 protein (PSD-95 PDZ1, residues 61-151, with tag …) (human) (UniProt P78352).
Assay [3] has as its target HIS-PDZ1-2 protein (PSD-95 PDZ1-2 tandem, residues 61-249, with tag …) (human) (UniProt P78352).

Regarding “ESDV (8) with D-Glu instead of L-Glu (peptide)”, the fold impairment of affinity relative to peptide 1 in assay [1] and in assay [2] was > 25 fold each time.
On to SDV (9) (peptide), for which the fold increase in Ki compared to peptide 1 is > 30 fold in assay [1] and > 20 fold in assay [2].
In the case of Tat-NR2B (3) (peptide), the Ki was 4.4 µM in assay [1], 14 µM in assay [2] and 9.8 µM in assay [3].
For the substance TAV (49) (peptide), the Ki in assay [1] stood at 37 µM; in assay [2] it was 42 µM.
